B1: Hairpin Ribozyme (parent)
chain: GUCCUCUUUCACGUGCGCGUGAAAGAGAGAAGUGAACCAGAGAAACACACGUUGUGGUAUAUUACCUGGUA

In this data set the parent is B1. Kind of data set: self-cleavage, relative activity (ratio to wild type); higher = more cleavage; co-transcriptional.
Turning to G34A A36G, the self-cleavage was 1.19.
For A47G A59G the value was 0.196; for U2G A31C, 0.0758.
As to U2G A31G, the self-cleavage is 0.281.
As to A36U A59G, the self-cleavage came to 0.19.
Under A24U C46U stands 0.264; under C16U G29A, 0.146; under C10A G54C, 0.355.
For G29U A45G, the self-cleavage was 0.136.
As to A31G G40U, the self-cleavage was determined as 0.168.
Under U5C A41G stands 0.569.
In the case of C10G C38G, the self-cleavage is 0.133.
C10G C38U: the self-cleavage was 0.435.
For C3G A26U, the self-cleavage was determined as 0.214.
As for A11G A23U, the self-cleavage turned out to be 0.93.
Under U20C A28C stands 0.374.
For C18A C65A, the self-cleavage amounted to 0.957.
With A28G U63A, the self-cleavage amounted to 0.141.
U58C U67G: the self-cleavage is 0.241.
As to U5G A35C, the self-cleavage was determined as 0.254.
As for A23U C46A, the self-cleavage was determined as 0.224.
For A11C G40A the value was 0.318; for G54A G69A, 0.137; for A23U A59C, 0.0742.
As to G40A A44C, the self-cleavage worked out at 0.161.
With G29U U55G, the self-cleavage worked out at 0.062.
For U7A A23C the value was 0.894; for A28U U55C, 0.161; for A49G A64C, 0.248.
Regarding U8C A45C, the self-cleavage is 0.065.
As to G34A C66A, the self-cleavage turned out to be 0.469.
As to A23G A41G, the self-cleavage was determined as 0.678.
As for A22C G68U, the self-cleavage was determined as 0.262.
Consider U14G G40C, for which the self-cleavage is 0.111.
As to U55A, the self-cleavage was 0.258.
A44C A64U: the self-cleavage came out at 0.155.
Take G15C G34A: the self-cleavage is 1.02.
On to C50G G56C, for which the self-cleavage amounted to 0.0923.
Turning to U2A A11U, the self-cleavage was 0.269.
For the variant C38A A71C, the self-cleavage came out at 0.228.
Regarding U8G G15U, the self-cleavage came to 0.656.
In the case of A11U C46A, the self-cleavage worked out at 0.16.
Under G54U U67C stands 0.106.
Take G13U U53A: the self-cleavage came out at 0.777.
Regarding A41C A71G, the self-cleavage was 1.26.
For U5G G57A, the self-cleavage was 0.127.
Turning to C10A A30G, the self-cleavage worked out at 0.131.
Take U7C A35C: the self-cleavage worked out at 0.612.
For C3A A43G the value was 0.143.
As for C3A U62G, the self-cleavage came to 0.101.
With A43C G54A, the self-cleavage stood at 0.217.
C12A A28U: the self-cleavage came to 0.34.
As for C10A A36G, the self-cleavage was determined as 0.856.
For C10U C50U, the self-cleavage stood at 0.391.
Consider G25A G32A, for which the self-cleavage is 0.216.
Regarding C46U A49U, the self-cleavage amounted to 0.239.
As to G19A C48A, the self-cleavage turned out to be 0.136.
For G57U A61G the value was 0.296; for C4G G51C, 0.207.
Take U58G A71U: the self-cleavage turned out to be 0.455.
Consider G29U G68U, for which the self-cleavage was 0.176.
Under U2G A49U stands 0.053; under U7G U9A, 0.68.
As for U55A G68C, the self-cleavage was 0.098.
For A24C G51U the value was 0.878; for U20C A26G, 1.06.
Turning to U33A U63A, the self-cleavage came out at 0.0514.
For G42A A61C the value was 0.0818; for A44G A59G, 0.131; for U2C G19U, 0.161.
For C16U G17C the value was 0.985; for A35U A47C, 0.258; for C16G U20A, 1.02.
In the case of C4U C10A, the self-cleavage worked out at 0.177.
For G29C G40U the value was 0.171; for G29C A59G, 0.0639; for G13C G51U, 0.61.
Under C4A G25U stands 0.214.
Consider A31U G54C, for which the self-cleavage amounted to 0.119.
With U58C G69C, the self-cleavage amounted to 0.259.
Under G15C A24U stands 0.884; under C18U A47U, 0.178; under U9G A45G, 0.205.
Consider U62C A71G, for which the self-cleavage worked out at 0.236.
Take U2C A41C: the self-cleavage was determined as 0.0362.
Under A28C U53G stands 0.213; under C16U G40U, 0.146; under U20A A36G, 0.858.
With G25A C38A, the self-cleavage was found to be 0.173.
Under G54C A59G stands 0.0783; under A30U U70A, 0.0595.
On to G32A G57C, for which the self-cleavage was found to be 0.117.
With A36C A41U, the self-cleavage was 0.92.
On to G13U U62A, for which the self-cleavage is 0.179.
With C48G U53C, the self-cleavage was found to be 0.206.
Turning to U63G U70C, the self-cleavage came to 0.161.
As for C50U U62C, the self-cleavage was 0.0808.
A36G U63C: the self-cleavage stood at 0.201.
As for A23U G34U, the self-cleavage is 1.34.
For U7A C46U, the self-cleavage came out at 0.159.
With A59C G68C, the self-cleavage amounted to 0.227.
As for A22C U67A, the self-cleavage was found to be 0.195.
Consider A23G G27U, for which the self-cleavage is 0.254.
For the variant A11U A23U, the self-cleavage turned out to be 0.728.
With A23U U52C, the self-cleavage came out at 0.677.
Under U8A U20G stands 0.711; under G25C U52G, 0.356; under U20G A30G, 0.148.
In the case of G51C G56A, the self-cleavage turned out to be 0.197.
Take G1U G19C: the self-cleavage was 0.105.
On to A26G C65U, for which the self-cleavage amounted to 0.311.
Consider C18G A59C, for which the self-cleavage was 0.224.
Under A28G U52C stands 0.763.
U7C C18G: the self-cleavage worked out at 0.732.
Under C10G U70C stands 0.93; under C38U G40C, 0.118.
With G15C U63A, the self-cleavage stood at 0.188.
For G1C U7A, the self-cleavage stood at 0.229.
G29C U58C: the self-cleavage came out at 0.159.
For the variant A31G G32A, the self-cleavage is 0.0999.
For C12G U67C the value was 0.233; for C6A A24G, 0.45; for U5A C6A, 0.337.
With C18G A64U, the self-cleavage was found to be 0.18.
On to A22C U33A, for which the self-cleavage stood at 0.0448.
As for U7G G51A, the self-cleavage turned out to be 0.891.
For G21A G56A the value was 0.19.
C4A G69A: the self-cleavage worked out at 0.141.
On to G13U G25C, for which the self-cleavage came out at 0.274.
Consider U2A A35U, for which the self-cleavage was found to be 0.174.
For C18G G25A, the self-cleavage was 0.578.
C3U G54A: the self-cleavage was 0.251.
For U2A U20G, the self-cleavage was found to be 0.201.
C50A A59G: the self-cleavage worked out at 0.0618.
U20C G69A: the self-cleavage is 0.435.
Regarding A24U U63G, the self-cleavage came out at 0.146.
On to C38A A47G, for which the self-cleavage was 0.106.
As to U8C A28U, the self-cleavage was 0.693.
Regarding G17A U62A, the self-cleavage worked out at 0.159.
For the variant C18U A61U, the self-cleavage was 0.22.
Consider C48A U67G, for which the self-cleavage worked out at 0.122.
U2C U55G: the self-cleavage amounted to 0.0647.
As to G17C A39G, the self-cleavage was 0.217.
Take A41C U67C: the self-cleavage was 0.249.
U2C U8G: the self-cleavage amounted to 0.118.
Take G32U A43G: the self-cleavage was 0.0636.
For C6A G29A, the self-cleavage came out at 0.129.
For A31U G69A, the self-cleavage was determined as 0.182.
For C38U A39C, the self-cleavage worked out at 0.152.
Take C37U U63C: the self-cleavage worked out at 0.0912.
In the case of C12G U62C, the self-cleavage amounted to 0.235.
Consider G25C U60A, for which the self-cleavage was determined as 0.392.
As to A26C G32A, the self-cleavage was 0.0538.
For G40A G69C the value was 0.11; for C50G U63A, 0.177.
For A31C G51A the value was 0.179.
For C3G U52A the value was 0.332; for U8C U63C, 0.132; for U8C A26C, 0.316.
Regarding C16U G57C, the self-cleavage worked out at 0.113.
As to G13U A47U, the self-cleavage was determined as 0.129.
As for A24C G57C, the self-cleavage was found to be 0.131.
For A31G U52C the value was 0.508.
With A41U U58C, the self-cleavage was found to be 1.41.
For U9G U52C the value was 0.546.
Under C6A A47C stands 0.221.
Under C12A G51U stands 0.933.
